Assay results reported in PMC10110553.
Substitutions are numbered along the chain they refer to. Values belong to the molecule of their own block, whether it stands above or below them.

Assays:
[1] = biological target: Hsp90 of the yeast-purified Hsp90:Cdc37:CRaf^KD complex (human) (UniProt P08238); assay: cryo-EM structure; same sample as a1; pairs inside the natively isolated Hsp90^closed:Cdc37:CRaf^KD complex, which was assembled in yeast and co-purified
[2] = biological target: Hsp90 (E. coli purified; used as Hsp90^open without nucleotide or Hsp90^closed) (human) (UniProt P08238); assay: fluorescence correlation spectroscopy (FCS); ~20 nM Alexa488-labelled PP5 with varying concentrations of Hsp90^closed dimer; room temperature; hydrodynamic radius against Hsp90 concentration, one-site total binding fit; apparent KD
[3] = biological target: Hsp90 of the mammalian-purified Hsp90:Cdc37:CRaf complexes (human) (UniProt P08238)
[4] = biological target: Hsp90 (E. coli purified; used as Hsp90^open without nucleotide or Hsp90^closed) (human) (UniProt P08238)
[5] = biological target: Hsp90 (E. coli purified; used as Hsp90^open without nucleotide or Hsp90^closed) (human) (UniProt P08238); assay: fluorescence correlation spectroscopy (FCS); ~20 nM Alexa488-labelled PP5 with varying concentrations of Hsp90^closed dimer; room temperature; hydrodynamic radius against Hsp90 concentration, one-site total binding fit; apparent KD; remark: listed apart in the source
[6] = biological target: Hsp90 (E. coli purified; used as Hsp90^open without nucleotide or Hsp90^closed) (human) (UniProt P08238); assay: fluorescence correlation spectroscopy (FCS); ~20 nM Alexa488-labelled PP5 with varying concentrations of Hsp90^open; room temperature; hydrodynamic radius against Hsp90 concentration, one-site total binding fit; apparent KD
[7] = biological target: Hsp90 of the mammalian-purified Hsp90:Cdc37:CRaf complexes (human) (UniProt P08238); remark: listed apart in the source
[8] = biological target: Hsp90 (E. coli purified; used as Hsp90^open without nucleotide or Hsp90^closed) (human) (UniProt P08238); remark: listed apart in the source

Sequence of UniProt P08238 (P08238 2-724 limits assumed): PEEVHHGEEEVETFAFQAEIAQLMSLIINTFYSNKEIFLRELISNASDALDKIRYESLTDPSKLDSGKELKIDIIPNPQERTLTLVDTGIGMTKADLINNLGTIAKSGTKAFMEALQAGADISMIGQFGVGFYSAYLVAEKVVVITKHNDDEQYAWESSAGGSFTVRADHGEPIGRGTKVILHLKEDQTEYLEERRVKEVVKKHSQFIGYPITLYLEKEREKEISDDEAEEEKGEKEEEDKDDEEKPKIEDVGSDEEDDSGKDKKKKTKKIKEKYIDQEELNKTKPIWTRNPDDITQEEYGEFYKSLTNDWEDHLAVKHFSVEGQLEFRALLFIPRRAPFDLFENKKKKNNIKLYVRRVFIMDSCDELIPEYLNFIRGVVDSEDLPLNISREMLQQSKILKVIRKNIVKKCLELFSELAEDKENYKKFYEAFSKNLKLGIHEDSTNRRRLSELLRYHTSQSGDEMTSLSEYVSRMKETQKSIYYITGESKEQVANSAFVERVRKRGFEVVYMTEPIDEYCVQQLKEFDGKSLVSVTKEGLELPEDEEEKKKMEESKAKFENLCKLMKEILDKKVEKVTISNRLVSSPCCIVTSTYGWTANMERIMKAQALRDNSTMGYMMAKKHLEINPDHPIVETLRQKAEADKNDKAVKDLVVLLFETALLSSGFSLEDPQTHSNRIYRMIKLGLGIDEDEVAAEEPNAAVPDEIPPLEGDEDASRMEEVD

stoichiometry N [1]: 2
Molecule: Hsp90 of the yeast-purified Hsp90:Cdc37:CRaf^KD complex (from UniProt P08238 1-724) (natural protein)

Kd [2]: 230 µM
rate of CRaf^pS338 dephosphorylation by PP5 in the Hsp90:Cdc37:CRaf complex (3 μM complex, 150 nM PP5, 25 °C) [3]: 0.19 min^−1
rate of Cdc37^pS13 dephosphorylation by PP5 in Hsp90^open:Cdc37^pS13 (3 μM Cdc37^pS13 and equimolar Hsp90, 750 nM PP5, 25 °C) [4]: 0.043 min^−1
Kd [5]: 0.43 µM
Kd [6]: 0.62 µM
B1: Serine/threonine-protein phosphatase 5 (PP5), wild type (enzyme)
chain: MAMAEGERTECAEPPRDEPPADGALKRAEELKTQANDYFKAKDYENAIKFYSQAIELNPSNAIYYGNRSLAYLRTECYGYALGDATRAIELDKKYIKGYYRRAASNMALGKFRAALRDYETVVKVKPHDKDAKMKYQECNKIVKQKAFERAIAGDEHKRSVVDSLDIESMTIEDEYSGPKLEDGKVTISFMKELMQWYKDQKKLHRKCAYQILVQVKEVLSKLSTLVETTLKETEKITVCGDTHGQFYDLLNIFELNGLPSETNPYIFNGDFVDRGSFSVEVILTLFGFKLLYPDHFHLLRGNHETDNMNQIYGFEGEVKAKYTAQMYELFSEVFEWLPLAQCINGKVLIMHGGLFSEDGVTLDDIRKIERNRQPPDSGPMCDLLWSDPQPQNGRSISKRGVSCQFGPDVTKAFLEENNLDYIIRSHEVKAEGYEVAHGGRCVTVFSAPNYCDQMGNKASYIHLQGSDLRPQFHQFTAVPHPNVKPMAYANTLLQLGMM
modifications: Alexa488 (maleimide dye) in the FCS assays

Kd [2]: 4300 µM
rate of CRaf^pS338 dephosphorylation by PP5 in the Hsp90:Cdc37:CRaf complex (3 μM complex, 150 nM PP5, 25 °C) [3]: 0.046 min^−1
rate of Cdc37^pS13 dephosphorylation by PP5 in Hsp90^open:Cdc37^pS13 (3 μM Cdc37^pS13 and equimolar Hsp90, 750 nM PP5, 25 °C) [4]: 0.006 min^−1
B2: PP5^R113D (enzyme)
chain: B1 chain with R113D
modifications: Alexa488 (maleimide dye) in the FCS assays

Kd [2]: 3300 µM
rate of CRaf^pS338 dephosphorylation by PP5 in the Hsp90:Cdc37:CRaf complex (3 μM complex, 150 nM PP5, 25 °C) [3]: 0.04 min^−1
rate of Cdc37^pS13 dephosphorylation by PP5 in Hsp90^open:Cdc37^pS13 (3 μM Cdc37^pS13 and equimolar Hsp90, 750 nM PP5, 25 °C) [4]: 0.012 min^−1
B3: PP5^R150D (enzyme)
chain: B1 chain with R150D
modifications: Alexa488 (maleimide dye) in the FCS assays

Kd [2]: 2000 µM
rate of CRaf^pS338 dephosphorylation by PP5 in the Hsp90:Cdc37:CRaf complex (3 μM complex, 150 nM PP5, 25 °C) [3]: 0.05 min^−1
rate of Cdc37^pS13 dephosphorylation by PP5 in Hsp90^open:Cdc37^pS13 (3 μM Cdc37^pS13 and equimolar Hsp90, 750 nM PP5, 25 °C) [4]: 0.009 min^−1
B4: PP5^F148K (enzyme)
chain: B1 chain with F148K
modifications: Alexa488 (maleimide dye) in the FCS assays

Kd [5]: 0.13 µM
rate of CRaf^pS338 dephosphorylation by PP5^(αJ del) in the Hsp90:Cdc37:CRaf complex [7]: 0.28 min^−1
rate of Cdc37 dephosphorylation by PP5^(αJ del) while Cdc37 is bound to Hsp90 [8]: 0.055 min⁻¹
Kd [6]: 0.12 µM
B5: PP5^(αJ del) (PP5 with the last 10 residues truncated) (enzyme)
chain: MAMAEGERTECAEPPRDEPPADGALKRAEELKTQANDYFKAKDYENAIKFYSQAIELNPSNAIYYGNRSLAYLRTECYGYALGDATRAIELDKKYIKGYYRRAASNMALGKFRAALRDYETVVKVKPHDKDAKMKYQECNKIVKQKAFERAIAGDEHKRSVVDSLDIESMTIEDEYSGPKLEDGKVTISFMKELMQWYKDQKKLHRKCAYQILVQVKEVLSKLSTLVETTLKETEKITVCGDTHGQFYDLLNIFELNGLPSETNPYIFNGDFVDRGSFSVEVILTLFGFKLLYPDHFHLLRGNHETDNMNQIYGFEGEVKAKYTAQMYELFSEVFEWLPLAQCINGKVLIMHGGLFSEDGVTLDDIRKIERNRQPPDSGPMCDLLWSDPQPQNGRSISKRGVSCQFGPDVTKAFLEENNLDYIIRSHEVKAEGYEVAHGGRCVTVFSAPNYCDQMGNKASYIHLQGSDLRPQFHQFTAVPHPNVKPMAY
modifications: Alexa488 (maleimide dye) in the FCS assays
